Measurements as given in article PMC12865225 (Clinical and Translational Science, 2026).
Values joined by “and” are separate entries in the source; they are usually repeats but may differ in a detail not shown here. Equal values may be shown once.

B1: OATP1B1 (Homo sapiens) (protein)
chain: MDQNQHLNKTAEAQPSENKKTRYCNGLKMFLAALSLSFIAKTLGAIIMKSSIIHIERRFEISSSLVGFIDGSFEIGNLLVIVFVSYFGSKLHRPKLIGIGCFIMGIGGVLTALPHFFMGYYRYSKETNINSSENSTSTLSTCLINQILSLNRASPEIVGKGCLKESGSYMWIYVFMGNMLRGIGETPIVPLGLSYIDDFAKEGHSSLYLGILNAIAMIGPIIGFTLGSLFSKMYVDIGYVDLSTIRITPTDSRWVGAWWLNFLVSGLFSIISSIPFFFLPQTPNKPQKERKASLSLHVLETNDEKDQTANLTNQGKNITKNVTGFFQSFKSILTNPLYVMFVLLTLLQVSSYIGAFTYVFKYVEQQYGQPSSKANILLGVITIPIFASGMFLGGYIIKKFKLNTVGIAKFSCFTAVMSLSFYLLYFFILCENKSVAGLTMTYDGNNPVTSHRDVPLSYCNSDCNCDESQWEPVCGNNGITYISPCLAGCKSSSGNKKPIVFYNCSCLEVTGLQNRNYSAHLGECPRDDACTRKFYFFVAIQVLNLFFSALGGTSHVMLIVKIVQPELKSLALGFHSMVIRALGGILAPIYFGALIDTTCIKWSTNNCGTRGSCRTYNSTSFSRVYLGLSSMLRVSSLVLYIILIYAMKKKYQEKDINASENGSVMDEANLESLNKNKHFVPSAGADSETHC
B2: OATP2B1 (Homo sapiens) (protein)
chain: MGPRIGPAGEVPQVPDKETKATMGTENTPGGKASPDPQDVRPSVFHNIKLFVLCHSLLQLAQLMISGYLKSSISTVEKRFGLSSQTSGLLASFNEVGNTALIVFVSYFGSRVHRPRMIGYGAILVALAGLLMTLPHFISEPYRYDNTSPEDMPQDFKASLCLPTTSAPASAPSNGNCSSYTETQHLSVVGIMFVAQTLLGVGGVPIQPFGISYIDDFAHNSNSPLYLGILFAVTMMGPGLAFGLGSLMLRLYVDINQMPEGGISLTIKDPRWVGAWWLGFLIAAGAVALAAIPYFFFPKEMPKEKRELQFRRKVLAVTDSPARKGKDSPSKQSPGESTKKQDGLVQIAPNLTVIQFIKVFPRVLLQTLRHPIFLLVVLSQVCLSSMAAGMATFLPKFLERQFSITASYANLLIGCLSFPSVIVGIVVGGVLVKRLHLGPVGCGALCLLGMLLCLFFSLPLFFIGCSSHQIAGITHQTSAHPGLELSPSCMEACSCPLDGFNPVCDPSTRVEYITPCHAGCSSWVVQDALDNSQVFYTNCSCVVEGNPVLAGSCDSTCSHLVVPFLLLVSLGSALACLTHTPSFMLILRGVKKEDKTLAVGIQFMFLRILAWMPSPVIHGSAIDTTCVHWALSCGRRAVCRYYNNDLLRNRFIGLQFFFKTGSVICFALVLAVLRQQDKEARTKESRSSPAVEQQLLVSGPGKKPEDSRV
B3: OAT3 (Homo sapiens) (protein)
chain: MTFSEILDRVGSMGHFQFLHVAILGLPILNMANHNLLQIFTAATPVHHCRPPHNASTGPWVLPMGPNGKPERCLRFVHPPNASLPNDTQRAMEPCLDGWVYNSTKDSIVTEWDLVCNSNKLKEMAQSIFMAGILIGGLVLGDLSDRFGRRPILTCSYLLLAASGSGAAFSPTFPIYMVFRFLCGFGISGITLSTVILNVEWVPTRMRAIMSTALGYCYTFGQFILPGLAYAIPQWRWLQLTVSIPFFVFFLSSWWTPESIRWLVLSGKSSKALKILRRVAVFNGKKEEGERLSLEELKLNLQKEISLAKAKYTASDLFRIPMLRRMTFCLSLAWFATGFAYYSLAMGVEEFGVNLYILQIIFGGVDVPAKFITILSLSYLGRHTTQAAALLLAGGAILALTFVPLDLQTVRTVLAVFGKGCLSSSFSCLFLYTSELYPTVIRQTGMGVSNLWTRVGSMVSPLVKITGEVQPFIPNIIYGITALLGGSAALFLPETLNQPLPETIEDLENWSLRAKKPKQEPEVEKASQRIPLQPHGPGLGSS
B4: OAT4 (Homo sapiens) (protein)
chain: MAFSKLLEQAGGVGLFQTLQVLTFILPCLMIPSQMLLENFSAAIPGHRCWTHMLDNGSAVSTNMTPKALLTISIPPGPNQGPHQCRRFRQPQWQLLDPNATATSWSEADTEPCVDGWVYDRSVFTSTIVAKWDLVCSSQGLKPLSQSIFMSGILVGSFIWGLLSYRFGRKPMLSWCCLQLAVAGTSTIFAPTFVIYCGLRFVAAFGMAGIFLSSLTLMVEWTTTSRRAVTMTVVGCAFSAGQAALGGLAFALRDWRTLQLAASVPFFAISLISWWLPESARWLIIKGKPDQALQELRKVARINGHKEAKNLTIEVLMSSVKEEVASAKEPRSVLDLFCVPVLRWRSCAMLVVNFSLLISYYGLVFDLQSLGRDIFLLQALFGAVDFLGRATTALLLSFLGRRTIQAGSQAMAGLAILANMLVPQDLQTLRVVFAVLGKGCFGISLTCLTIYKAELFPTPVRMTADGILHTVGRLGAMMGPLILMSRQALPLLPPLLYGVISIASSLVVLFFLPETQGLPLPDTIQDLESQKSTAAQGNRQEAVTVESTSL

Experiments:
[1] = molecular target: T1, OATP1B1 (Homo sapiens, UniProt Q9Y6L6); set-up: method as in PMID 23571415; settings: 10 μM in vitro; cited from earlier work
T1 construct: expressed in transfected cells; host or cells: HEK293 (recombinant baculovirus-mediated transduction)
T1 sequence (Q9Y6L6 1-691): B1 chain

[2] = molecular target: T2, OATP1B3 (Homo sapiens, UniProt Q9NPD5); set-up: method as in PMID 23571415; settings: 10 μM in vitro; cited from earlier work
T2 construct: expressed in transfected cells; host or cells: HEK293 (recombinant baculovirus-mediated transduction)
T2 sequence (Q9NPD5 1-702): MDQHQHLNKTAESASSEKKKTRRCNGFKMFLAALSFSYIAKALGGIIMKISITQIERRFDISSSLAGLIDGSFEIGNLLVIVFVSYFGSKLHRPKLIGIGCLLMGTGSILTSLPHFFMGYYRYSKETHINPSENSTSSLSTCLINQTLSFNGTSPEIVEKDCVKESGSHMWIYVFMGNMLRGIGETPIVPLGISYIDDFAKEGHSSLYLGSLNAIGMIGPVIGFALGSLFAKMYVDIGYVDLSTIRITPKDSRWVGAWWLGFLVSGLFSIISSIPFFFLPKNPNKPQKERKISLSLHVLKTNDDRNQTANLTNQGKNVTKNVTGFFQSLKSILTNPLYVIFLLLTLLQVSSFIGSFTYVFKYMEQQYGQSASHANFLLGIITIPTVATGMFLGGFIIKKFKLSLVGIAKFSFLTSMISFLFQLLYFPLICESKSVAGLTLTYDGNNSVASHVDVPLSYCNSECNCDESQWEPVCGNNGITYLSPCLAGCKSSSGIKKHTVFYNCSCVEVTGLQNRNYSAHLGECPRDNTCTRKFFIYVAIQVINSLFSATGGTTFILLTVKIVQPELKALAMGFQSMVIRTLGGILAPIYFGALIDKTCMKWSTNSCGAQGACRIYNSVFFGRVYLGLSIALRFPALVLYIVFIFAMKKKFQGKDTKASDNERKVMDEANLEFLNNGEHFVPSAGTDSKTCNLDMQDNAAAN

[3] = substrate: Cc1onc(-c2c(Cl)cccc2Cl)c1C(=O)N[C@@H]1C(=O)N2[C@@H]1SC(C)(C)[C@@H]2C(=O)O; experiment: cells, lysate or membranes; settings: other: uptake, 2 min; pH 7.4; 37.0 °C
[4] = substrate: Cc1onc(-c2c(F)cccc2Cl)c1C(=O)N[C@@H]1C(=O)N2[C@@H]1SC(C)(C)[C@@H]2C(=O)O; experiment: cells, lysate or membranes; settings: other: uptake, 2 min; pH 7.4; 37.0 °C

| Molecule | inhibition of OATP1B1 transport [1] | inhibition of OATP1B3 transport [2] | Km [3] | Km [4] [µM] |
| --- | --- | --- | --- | --- |
| Cc1onc(-c2ccccc2Cl)c1C(=O)N[C@@H]1C(=O)N2[C@@H]1SC(C)(C)[C@@H]2C(=O)O [cloxacillin] | around 50% | around 50% | – | – |
| B1 | – | – | 3.22 µM and 3 µM | 10.4 |
| B2 | – | – | 34.7 µM | 41.6 |
| B3 | – | – | 22.4 µM | 27.0 |
| B4 | – | – | 32.9 µM | 52.5 |
